The target in experiment [1] is linear peptide … (rabies virus strain ERA). The experiment is described as follows: PEPSCAN ELISA, linear peptide, antibody 10 µg/ml.
For experiment [2] the target is unchanged. The experiment is described as follows: PEPSCAN ELISA, linear peptide, 10 µg/ml.

B1: human monoclonal antibody CRJA (antibody, V domains shown)
VH: EVQLLESGGGLVQPGGSLRLSCAASGFTFSNYAMSWVRQAPGKGLEWVSAISASGHSTYLADSVKGRFTISRDNSKNTLYLQMNSLRAEDTAVYYCAKDREVTMIVVLNGGFDYWGQGTRVTVSS
VL: EIVLTQSPATLSLSPGERATLACRASQTASRYLAWYQQKPGQAPRLLIYDTSNRATGIPARFSGSGSGTDFTLSISSLEPEDFAVYYCQQRFNWPWTFGQGTKVEFK
B1 registered an OD value in experiment [1] of 1030. The same molecule had an OD in experiment [2] of 96 OD.

B2: human monoclonal antibody CR57 (antibody, V domains shown)
VH: QVQLVQSGAEVKKPGSSVKVSCKASGGTFNRYTVNWVRQAPGQGLEWMGGIIPIFGTANYAQRFQGRLTITADESTSTAYMELSSLRSDDTAVYFCARENLDNSGTYYYFSGWFDPWGQGTLVTVSS
VL: QSALTQPRSVSGSPGQSVTISCTGTSSDIGGYNFVSWYQQHPGKAPKLMIYDATKRPSGVPDRFSGSKSGNTASLTISGLQAEDEADYYCCSYAGDYTPGVVFGGGTKLTVL
Take B2: the OD value in experiment [1] is 364.

The record behind these values is patent publication US20060263802A1.
